Measured values taken from US20160033523A1 (NOVOZYMES BIOPHARMA DK A S, published 2016).

B4: Wild type pig serum albumin (ligand)
chain: DTYKSEIAHRFKDLGEQYFKGLVLIAFSQHLQQCPYEEHVKLVREVTEFAKTCVADESAENCDKSIHTLFGDKLCAIPSLREHYGDLADCCEKEEPERNECFLQHKNDNPDIPKLKPDPVALCADFQEDEQKFWGKYLYEIARRHPYFYAPELLYYAIIYKDVFSECCQAADKAACLLPKIEHLREKVLTSAAKQRLKCASIQKFGERAFKAWSLARLSQRFPKADFTEISKIVTDLAKVHKECCHGDLLECADDRADLAKYICENQDTISTKLKECCDKPLLEKSHCIAEAKRDELPADLNPLEHDFVEDKEVCKNYKEAKHVFLGTFLYEYSRRHPDYSVSLLLRIAKIYEATLEDCCAKEDPPACYATVFDKFQPLVDEPKNLIKQNCELFEKLGEYGFQNALIVRYTKKVPQVSTPTLVEVARKLGLVGSRCCKRPEEERLSCAEDYLSLVLNRLCVLHEKTPVSEKVTKCCTESLVNRRPCFSALTPDETYKPKEFVEGTFTFHADLCTLPEDEKQIKKQTALVELLKHKPHATEEQLRTVLGNFAAFVQKCCAAPDHEACFAVEGPKFVIEIRGILA
notes: also called PSA; pig SA
B6: Soluble guinea pig FcRn with guinea pig beta2-microglobulin, HIS-tagged (receptor)
chain: AENHLSLLYHLTAVSSPATGSPAFWVSGWLGPQQYLSYSSLRREAEPCGAWVWETQVSWYWEMETTDLKNKESLFLEALKALGGKGPYTLQGILGCELSPDNSSVPTALFALNGEDFMEFHPENGSWTGDWPEALSISKQWEKKAEVVSKEKTFLLSSCPQRLLDHLERSRRNLEWKEPPSMRLKARPGDAGFSVLTCSAFSFYPPELQLRFLHNGLAAGTGEGGFGPNGDGSFHAWSSLTVQRGDEHNYRCLVQHAGLPQPLSVELESPAGSS
b2m: VLHAPRVQVYSRHPAENGKQNFINCYVSGFHPPQIEVELLKNGKKIDNVEMSDLSFSKDWTFYLLVHAAFTPNDSDEYSCRVSHITLSEPKIVKWDPNK
notes: Synthesized by GeneArt, expressed in HEK cells; also called gpFcRn; gpFcRN; not shown: HIS-tag on the C-terminal of the beta-chain

How the values were obtained:
[1] = biological target: T1, Soluble pig FcRn, GST-tagged, with human beta2-microglobulin (Example 2) (pig; Schistosoma japonicum; human, UniProt P08515 1-218 = GST); test: SPR, albumin over immobilized GST-FcRn, pH 6.0, 1:1 model
T1 construct: also called pFcRn; spFcRn
Experimental: (§1) SPR experiments were carried out using a Biacore 3000 instrument (GE Healthcare). Flow cells of CM5 sensor chips were coupled with soluble FcRn from one of the following species, human (shFcRn), rat (srFcRn), mouse (smFcRn), rhesus monkey (srmFcRn), dog (dFcRn) or pig (pFcRn) (˜900-2500 resonance units (RU)) using GE Healthcare amine coupling chemistry as per the manufacturer's instructions. The coupling was performed by injecting 2 or 10 μg/ml FcRn in 10 mM sodium acetate pH 5.0 (GE healthcare). Phosphate buffer (67 mM phosphate buffer, 0.15 M NaCl, 0.005% Tween 20) at pH 6.0) was used as running buffer and dilution buffer. Regeneration of the surfaces were done using injections of HBS-EP buffer (0.01 M HEPES, 0.15 M NaCl, 3 mM EDTA, 0.005% surfactant P20) at pH 7.4 (GE Healthcare). For determination of binding kinetics, serial dilutions of albumin (10-0.3 μM) were injected over immobilized receptors at a constant flow rate (50 μl/min) at 25° C. In all experiments, data were zero adjusted and the reference cell subtracted.

[2] = biological target: T2, Soluble dog FcRn, GST-tagged, with human beta2-microglobulin (dog; Schistosoma japonicum; human, UniProt P08515 1-218 = GST); test: as above
T2 construct: also called dFcRn
Experimental: as §1

[3] = biological target: T3, Soluble rhesus monkey FcRn, GST-tagged, with human beta2-microglobulin (rhesus monkey; Schistosoma japonicum; …, UniProt P08515 1-218 = GST); test: as above
T3 construct: also called srmFcRn; soluble rhesus macaque FcRn
Experimental: as §1

[4] = biological target: T4, Wild type human serum albumin (human, UniProt P02768 25-609); test: SPR, albumin over immobilized His-FcRn, pH 5.5, steady state
T4 construct: also called HSA; HSA Wt
Experimental: as §1
(§2) The SPR assay was conducted with the following variations to the assay described in the Materials and Method section:
(§3) The soluble FcRn receptors were synthesized by GeneArt and expressed in HEK cells. The soluble FcRn contained a HIS-tag on the C-terminal of the Beta-chain instead of a GST on the heavy chain and the beta-chain used was the native beta-chain of the animal (see Materials and Method section for the corresponding sequences). The soluble FcRn was purified by a HIS trap column followed by an additional purification using an IgG column. The soluble FcRn receptor was diluted to 20 μg/mL. The phosphate buffer used as running buffer in the SPR assay was at pH 5.5 instead of pH 6.0. […] 1:1 Langmuir or Steady state model was used.

[5] = biological target: B4; test: as above
Experimental: as §1, §2, §3

[6] = biological target: T5, N-terminally c-myc tagged Wt HSA (human, UniProt P02768 25-609); test: as above
T5 construct: Secreted from yeast; a +2058 Da miscleaved leader species was reduced to below 5%; also called c-myc-HSA Wt; Cmyc-WT HSA
Experimental: as §1, §2, §3

[7] = biological target: T6, N-terminally c-myc tagged albumin variant K573P (human, UniProt P02768 25-609); test: SPR, albumin over immobilized His-FcRn, pH 5.5, 1:1 Langmuir
T6 construct: Substitution numbered on mature HSA, not on the tagged chain; also called c-myc-K573P
Experimental: as §1, §2, §3

HSA K573P = biological target: T7, HSA K573P (human, UniProt P02768 25-609); test: as above
T7 construct: Variant of mature HSA
Experimental: as §1, §2, §3

[8] = biological target: T2, Soluble dog FcRn, GST-tagged, with …; test: SPR, albumin over immobilized GST-FcRn, pH 6.0, estimated from steady state
Experimental: as §1

[9] = biological target: B6; test: SPR, albumin over immobilized His-FcRn, pH 5.5, 1:1 Langmuir
Experimental: as §1, §2, §3

T7 sequence (P02768 25-609 K597P): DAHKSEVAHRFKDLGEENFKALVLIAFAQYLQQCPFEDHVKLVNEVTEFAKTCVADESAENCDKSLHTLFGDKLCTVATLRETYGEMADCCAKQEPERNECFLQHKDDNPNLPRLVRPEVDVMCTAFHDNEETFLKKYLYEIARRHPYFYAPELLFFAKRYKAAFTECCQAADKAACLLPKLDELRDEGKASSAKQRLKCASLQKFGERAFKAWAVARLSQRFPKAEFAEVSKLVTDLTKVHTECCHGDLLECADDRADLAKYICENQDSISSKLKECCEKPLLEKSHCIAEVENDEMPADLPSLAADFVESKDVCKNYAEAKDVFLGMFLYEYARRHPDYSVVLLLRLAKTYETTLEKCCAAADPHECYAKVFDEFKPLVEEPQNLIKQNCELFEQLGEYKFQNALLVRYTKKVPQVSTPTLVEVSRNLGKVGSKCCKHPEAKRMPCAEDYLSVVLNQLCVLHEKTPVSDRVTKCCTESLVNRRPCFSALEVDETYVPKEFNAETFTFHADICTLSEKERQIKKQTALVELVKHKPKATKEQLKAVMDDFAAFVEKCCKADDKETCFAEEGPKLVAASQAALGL
T6 sequence (P02768 other isoform, or with tags, fused parts or gaps K573P K573P): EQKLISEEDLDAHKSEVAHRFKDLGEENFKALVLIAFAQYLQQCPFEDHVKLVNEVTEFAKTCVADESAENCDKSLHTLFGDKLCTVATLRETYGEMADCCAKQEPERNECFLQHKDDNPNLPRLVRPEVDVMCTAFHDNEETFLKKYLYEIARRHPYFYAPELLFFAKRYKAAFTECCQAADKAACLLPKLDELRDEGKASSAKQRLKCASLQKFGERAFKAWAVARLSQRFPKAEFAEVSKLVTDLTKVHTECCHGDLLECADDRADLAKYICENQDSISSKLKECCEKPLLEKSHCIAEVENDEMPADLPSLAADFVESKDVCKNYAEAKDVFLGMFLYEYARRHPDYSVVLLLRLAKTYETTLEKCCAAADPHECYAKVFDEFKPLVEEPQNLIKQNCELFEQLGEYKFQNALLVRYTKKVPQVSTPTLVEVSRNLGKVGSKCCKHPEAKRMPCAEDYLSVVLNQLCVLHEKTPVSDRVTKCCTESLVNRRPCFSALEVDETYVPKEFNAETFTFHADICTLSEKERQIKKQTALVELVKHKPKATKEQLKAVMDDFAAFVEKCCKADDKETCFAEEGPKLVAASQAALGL
T4 sequence (P02768 25-609): as the sequence (P02768 25-609 K597P) above, with P573K counted along it
T5 sequence (P02768 other isoform, or with tags, fused parts or gaps): as the sequence (P02768 other isoform, or with tags, fused parts or gaps K573P K573P) above, with P583K counted along it

B1: Wild type rhesus monkey serum albumin (ligand)
chain: DTHKSEVAHRFKDLGEEHFKGLVLVAFSQYLQQCPFEEHVKLVNEVTEFAKTCVADESAENCDKSLHTLFGDKLCTVATLRETYGEMADCCAKQEPERNECFLQHKDDNPNLPPLVRPEVDVMCTAFHDNEATFLKKYLYEVARRHPYFYAPELLFFAARYKAAFAECCQAADKAACLLPKLDELRDEGKASSAKQRLKCASLQKFGDRAFKAWAVARLSQKFPKAEFAEVSKLVTDLTKVHTECCHGDLLECADDRADLAKYMCENQDSISSKLKECCDKPLLEKSHCLAEVENDEMPADLPSLAADYVESKDVCKNYAEAKDVFLGMFLYEYARRHPDYSVMLLLRLAKAYEATLEKCCAAADPHECYAKVFDEFQPLVEEPQNLVKQNCELFEQLGEYKFQNALLVRYTKKVPQVSTPTLVEVSRNLGKVGAKCCKLPEAKRMPCAEDYLSVVLNRLCVLHEKTPVSEKVTKCCTESLVNRRPCFSALELDEAYVPKAFNAETFTFHADMCTLSEKEKQVKKQTALVELVKHKPKATKEQLKGVMDNFAAFVEKCCKADDKEACFAEEGPKFVAASQAALA
notes: also called rmSA; rmSA Wt
**Q.** How did the Kd [1] turn out when B1 was run?
**A.** The Kd was 1200 nM.

**Q.** And the koff [1]?
**A.** Its koff is 0.012 s⁻¹.

**Q.** And the kon [1]?
**A.** The kon was 10000 M⁻¹ s⁻¹.

**Q.** What about the Kd [2] of the same binder?
**A.** The Kd was 1540 nM.

**Q.** And the koff [2]?
**A.** Its koff is 0.02 s⁻¹.

**Q.** What about the kon [2] of the same binder?
**A.** Its kon is 13000 M⁻¹ s⁻¹.

**Q.** What about the Kd [3] of the same binder?
**A.** Its Kd is 2400 nM.

**Q.** What about the koff [3] of the same binder?
**A.** The koff was 0.013 s⁻¹.

**Q.** What about the kon [3] of the same binder?
**A.** The kon was 5300 M⁻¹ s⁻¹.

B2: Soluble pig FcRn with pig beta2-microglobulin, HIS-tagged (Example 4) (receptor)
chain: ADNHRSLLYHLTAVSAPTPGAPAFWVSGWLGPQQYLSYNNLRAQAEPYGAWVWESQVSWYWEKETADLRNKQKLFLEALKTLEEGGPFTLQGLLGCELGPDNVSVPVATFALNGEEFMKFDTKLGTWDGEWPEARTIGSKWMQEPDAVNKEKTFLLYSCPHRLLGHLERGRGNLEWKEPPSMRMKARPGTAPGFSVLTCIAFSFYPPELQLRFLRNGLAAGSGESDIGPNGDGSFHAWSSLTVKSGDEHHYCCVVQHAGLAQPLTVEL
b2m: VARPPKVQVYSRHPAENGKPNYLNCYVSGFHPPQIEIDLLKNGEKMNAEQSDLSFSKDWSFYLLVHTEFTPNAVDQYSCRVKHVTLDKPKIVKWDRDH
notes: also called pFcRn; not shown: HIS-tag on the C-terminal of the beta-chain
**Q.** Which Kd [4] does the source give for B2 here?
**A.** The Kd was 232000 nM.

**Q.** And the Kd [5]?
**A.** The Kd was 210000 nM.

**Q.** What about the Kd [6] of the same binder?
**A.** The Kd was 468000 nM.

**Q.** And the Kd [7]?
**A.** The Kd was 1300 nM.

**Q.** And the koff [7]?
**A.** Its koff is 0.0401 s⁻¹.

**Q.** What about the kon [7] of the same binder?
**A.** The kon was 31200 M⁻¹ s⁻¹.

**Q.** And the Kd (HSA K573P)?
**A.** Its Kd is 1900 nM.

**Q.** And the koff (HSA K573P)?
**A.** Its koff is 0.0622 s⁻¹.

**Q.** And the kon (HSA K573P)?
**A.** The kon was 32700 M⁻¹ s⁻¹.

B3: Wild type dog serum albumin (ligand)
chain: EAYKSEIAHRYNDLGEEHFRGLVLVAFSQYLQQCPFEDHVKLAKEVTEFAKACAAEESGANCDKSLHTLFGDKLCTVASLRDKYGDMADCCEKQEPDRNECFLAHKDDNPGFPPLVAPEPDALCAAFQDNEQLFLGKYLYEIARRHPYFYAPELLYYAQQYKGVFAECCQAADKAACLGPKIEALREKVLLSSAKERFKCASLQKFGDRAFKAWSVARLSQRFPKADFAEISKVVTDLTKVHKECCHGDLLECADDRADLAKYMCENQDSISTKLKECCDKPVLEKSQCLAEVERDELPGDLPSLAADFVEDKEVCKNYQEAKDVFLGTFLYEYARRHPEYSVSLLLRLAKEYEATLEKCCATDDPPTCYAKVLDEFKPLVDEPQNLVKTNCELFEKLGEYGFQNALLVRYTKKAPQVSTPTLVEVSRKLGKVGTKCCKKPESERMSCAEDFLSVVLNRLCVLHEKTPVSERVTKCCSESLVNRRPCFSGLEVDETYVPKEFNAETFTFHADLCTLPEAEKQVKKQTALVELLKHKPKATDEQLKTVMGDFGAFVEKCCAAENKEGCFSEEGPKLVAAAQAALV
notes: also called DSA
**Q.** Which results are given for B3?
**A.** Kd [1]: 1400 nM; koff [1]: 0.013 s⁻¹; kon [1]: 9200 M⁻¹ s⁻¹; Kd [2]: 280 nM; koff [2]: 0.0034 s⁻¹; kon [2]: 12000 M⁻¹ s⁻¹

**Q.** For B4, which Kd [8] is on record?
**A.** The Kd was 23000 nM.

**Q.** What about the Kd [1] of the same binder?
**A.** The Kd was 2700 nM.

**Q.** And the koff [1]?
**A.** The koff was 0.053 s⁻¹.

**Q.** What about the kon [1] of the same binder?
**A.** Its kon is 20000 M⁻¹ s⁻¹.

B5: Wild type guinea pig serum albumin (ligand)
chain: EAHKSEIAHRFNDLGEGHFKGLVLITLSQHLQKSPFEEHVKLVNEVTDFAKACVADESAQNCGKAIATLFGDKVCAIPSLRETYGELADCCAKEDPDRVECFLQHKDDNPNLPPFERPEPEALCTAFKENNDRFIGHYLYEVSRRHPYFYAPELLYYAEKYKNALTECCEAADKAACLTPKLDAIKEKALVSSAQQRLKCASLQKFGERAFKAWSVARLSQKFPKAEFAEISTIVTSLTKVTKECCHGDLLECADDRQELAKYMCEHQDSISSKLKECCVKPTLQKAHCILEIQRDELPTELPDLAVDFVEDKEVCKNFAEAKDVFLGTFLYEYSRRHPEYSIGMLLRIAKGYEAKLEKCCAEADPHACYAKVFDELQPLIDEPKKLVQQNCELFDKLGEYGFQNALAVRYTQKAPQVSTPTLVEYARKLGSVGTKCCSLPETERLSCTENYLALILNRLCILHEKTPVSERVTKCCTESLVNRRPCFSALHVDETYVPKPFHADSFTFHADICTLPEKEKQVKKQMALVELVKHKPKASEEQMKTVMGDFAAFLKKCCDADNKEACFTEDGPKLVAKCQATLA
notes: also called GPSA; guinea pig SA
**Q.** What does the source list for B5?
**A.** Kd [9]: 1100 nM; koff [9]: 0.0419 s⁻¹; kon [9]: 36200 M⁻¹ s⁻¹

**Q.** Which Kd [7] does the source give for B6 here?
**A.** Its Kd is 360000 nM.

**Q.** What about the koff [7] of the same binder?
**A.** Its koff is 0.181 s⁻¹.

**Q.** What about the kon [7] of the same binder?
**A.** Its kon is 500 M⁻¹ s⁻¹.

**Q.** And the Kd (HSA K573P)?
**A.** The Kd was 190000 nM.

**Q.** And the koff (HSA K573P)?
**A.** Its koff is 0.297 s⁻¹.

**Q.** And the kon (HSA K573P)?
**A.** Its kon is 1500 M⁻¹ s⁻¹.
